Where only a bound is given, the exact number is not on record here.

Drawing on patent US20240132578A1, this text covers IC50, pseudovirus neutralization, IC50 and IC50 (µg/ml), pseudovirus neutralization for 5 substances.

What all share (assay): cell-based or functional assay
The target of test [1] is HIV-1 Env of isolate MGRM-D-020 (clade D pseudovirus) (HIV-1).
Test [2] deals with HIV-1 Env of isolate MGRM-D-022 (clade D pseudovirus) (HIV-1).
The target in test [3] is HIV-1 Env of pseudovirus MGRM-F1-015 (clade F) (HIV-1).
Test [4] concerns the target HIV-1 Env of pseudovirus MGRM-F1-021 (clade F) (HIV-1).
The target of test [5] is HIV-1 VLGCA1 envelope glycoprotein (Env) on pseudovirus (HIV-1 (clade A)).
For test [6], the target named is HIV-1 envelope glycoprotein (Env) of isolate LAVI_C22 (HIV-1).
The target of test [7] is HIV-1 envelope glycoprotein (Env) of isolate MGRM-C-002 (HIV-1).
Test [8] concerns the target HIV-1 envelope glycoprotein (Env) of isolate MGRM-C-013 (HIV-1).
In test [9] the target is HIV-1 envelope glycoprotein (Env) of isolate MGRM-C-015 (HIV-1).

Sequence of 1443_C16 (PG16) (TCN-116) (antibody) (VH): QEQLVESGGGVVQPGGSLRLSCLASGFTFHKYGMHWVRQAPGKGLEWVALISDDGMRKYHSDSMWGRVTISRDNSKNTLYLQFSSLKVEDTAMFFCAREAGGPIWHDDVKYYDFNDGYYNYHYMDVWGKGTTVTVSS
Sequence of 1443_C16 (PG16) (TCN-116) (antibody) (VL): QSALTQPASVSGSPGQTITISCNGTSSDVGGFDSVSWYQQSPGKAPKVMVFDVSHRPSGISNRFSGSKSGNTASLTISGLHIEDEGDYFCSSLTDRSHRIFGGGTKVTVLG

For orientation: IC50 means the concentration needed to halve the response being measured. A low value points to inhibition by little substance. With b12 (antibody), the figures for the IC50, pseudovirus neutralization in test [1] and in [2] were more than 50 µg/mL and 17.6 µg/mL, respectively. Moreover, the IC50 in test [3] and in [4] was more than 50 µg/mL throughout. The IC50 (µg/ml), pseudovirus neutralization in test [5] is more than 50 µg/mL; in test [6], 7.64 µg/mL; in test [7], more than 50 µg/mL; in test [8] it was more than 50 µg/mL; in test [9], 13.3 µg/mL.

Take 1443_C16 (PG16) (TCN-116) (antibody): the IC50, pseudovirus neutralization is 16.3 µg/mL in test [1] and more than 50 µg/mL in [2]. For the same substance, the IC50 in test [3] and in [4] was more than 50 µg/mL each time. For the same substance, the IC50 (µg/ml), pseudovirus neutralization in test [5] is 0.18 µg/mL; in [6], 0.02 µg/mL; in test [7], 28.3 µg/mL; in [8] it was more than 50 µg/mL; in [9], 0.26 µg/mL.

Take 1495_C14 (PGC14) (antibody): the IC50, pseudovirus neutralization in test [1] and in test [2] was more than 50 µg/mL throughout. Also, the half-inhibitory concentration (IC50) in [3] was more than 50 µg/mL; in test [4] it was 46 µg/mL. For the same substance, the IC50 (µg/ml), pseudovirus neutralization was more than 50 µg/mL in [5]; 25 µg/mL in test [6]; more than 50 µg/mL in test [7]; more than 50 µg/mL in test [8]; more than 50 µg/mL in test [9].

Turning to 2G12 (antibody), the IC50, pseudovirus neutralization in test [1] and in test [2] was more than 50 µg/mL throughout. Besides, the results for the IC50 in test [3] and in [4] were more than 50 µg/mL and 14.1 µg/mL, respectively. For the same substance, the IC50 (µg/ml), pseudovirus neutralization in test [5] was more than 50 µg/mL; in test [6], more than 50 µg/mL; in test [7] it was more than 50 µg/mL; in [8], more than 50 µg/mL; in [9], 1.75 µg/mL.

For the substance 2F5 (antibody), the IC50, pseudovirus neutralization in [1] was more than 50 µg/mL; in [2], 8.45 µg/mL. The IC50 was found to be 0.1 µg/mL in test [3] and 1.37 µg/mL in test [4]. The IC50 (µg/ml), pseudovirus neutralization in [5] was 3.9 µg/mL; in test [6], more than 50 µg/mL; in test [7] it was 44.7 µg/mL; in test [8] it was 18.4 µg/mL; in [9], more than 50 µg/mL.
